Reference: publication PMC3742261, “Integrated Self-Assembly of the Mms6 Magnetosome Protein to Form an Iron-Responsive Structure” (International Journal of Molecular Sciences, 2013)
“And” between values parts separate entries of the source, which are not always exact repeats. Equal values may be shown once. Each block holds one molecule with its values, some of them ahead of it.

Columns and labels:
[1] = biological target: Mms6 (wild type, mature form, His-tagged) (Magnetospirillum magneticum strain AMB-1) (UniProt Q2W8R5); assay: SEC; Superose 12 column, protein loaded at 0.2 mg/mL, BC100 buffer (20 mM Tris, 100 mM KCl, pH 7.5), 4 °C; percent of total protein in the void volume by peak integration
[2] = biological target: Mms6 I117G (Magnetospirillum magneticum strain AMB-1) (UniProt Q2W8R5); assay: as above
[3] = biological target: Mms6 L84A, L86A, L88A, L90A, L92A (GL repeat replaced with a GA repeat) (Magnetospirillum magneticum strain AMB-1) (UniProt Q2W8R5); assay: SEC; Superose 12 column, protein loaded at 1 mg/mL, 4 °C; percent of total protein in the void volume by peak integration
[4] = biological target: Mms6 L84A, L86A, L88A, L90A, L92A (GL repeat replaced with a GA repeat) (Magnetospirillum magneticum strain AMB-1) (UniProt Q2W8R5); assay: SEC; Superose 12 column, protein loaded at 0.2 mg/mL, BC100 buffer (20 mM Tris, 100 mM KCl, pH 7.5), 4 °C; percent of total protein in the void volume by peak integration
[5] = biological target: Mms6 L128G (Magnetospirillum magneticum strain AMB-1) (UniProt Q2W8R5); assay: as above
[6] = biological target: Mms6 L132G (Magnetospirillum magneticum strain AMB-1) (UniProt Q2W8R5); assay: as above
[7] = biological target: Mms6 W79A (Magnetospirillum magneticum strain AMB-1) (UniProt Q2W8R5); assay: as above
[8] = biological target: Mms6 W79F (Magnetospirillum magneticum strain AMB-1) (UniProt Q2W8R5); assay: as above
[9] = biological target: Mms6 W79F,W95F (Magnetospirillum magneticum strain AMB-1) (UniProt Q2W8R5); assay: as above
[10] = biological target: Mms6 W95A (Magnetospirillum magneticum strain AMB-1) (UniProt Q2W8R5); assay: as above
[11] = biological target: Mms6 W95F (Magnetospirillum magneticum strain AMB-1) (UniProt Q2W8R5); assay: as above
[12] = biological target: the molecule itself; assay: SEC; Superdex Peptide 10/300 column, 80 micrograms C21Mms6, 10 mM Pi, pH 7.5; size from a standard curve
[13] = biological target: the molecule itself; assay: SEC; Superdex Peptide 10/300 column, 80 micrograms C21Mms6, 20 mM Tris, pH 7.5; size from a standard curve
[14] = biological target: the molecule itself; assay: SEC; Superdex Peptide 10/300 column, 80 micrograms C21Mms6, 10 mM Pi, 100 mM KCl, pH 7.5; size from a standard curve
[15] = biological target: the molecule itself; assay: SEC; Superdex Peptide 10/300 column, 80 micrograms C21Mms6, 20 mM Tris, 100 mM KCl, pH 7.5; size from a standard curve
[16] = biological target: the molecule itself; assay: SEC; Superdex Peptide 10/300 column, 80 micrograms C21Mms6, 50 mM Formate or Citrate, pH 3; size from a standard curve
[17] = biological target: the molecule itself; assay: SEC; Superdex Peptide 10/300 column, 80 micrograms C21Mms6, 20 mM Tris, 1.5 or 3 M KCl, pH 7.5; size from a standard curve
[18] = biological target: the molecule itself; assay: SEC; Superdex Peptide 10/300 column, 80 micrograms C21Mms6, 50 mM Formate or Citrate, pH 3 with FeCl3:protein = 8:1; size from a standard curve

% protein in Vo [3]: 55%
% protein in Vo [4]: 46% and 54%
Molecule: Mms6 L84A, L86A, L88A, L90A, L92A (GL repeat replaced with a GA repeat) (from UniProt Q2W8R5 1-133) (natural protein)

% protein in Vo [5]: 63% and 86%
Molecule: Mms6 L128G (from UniProt Q2W8R5 1-133) (natural protein)

% protein in Vo [8]: 96%
Molecule: Mms6 W79F (from UniProt Q2W8R5 1-133) (natural protein)

% protein in Vo [10]: 49% and 70%
Molecule: Mms6 W95A (from UniProt Q2W8R5 1-133) (natural protein)

The next lines start with the molecule.

Molecule: Mms6 (wild type, mature form, His-tagged) (from UniProt Q2W8R5 1-133) (natural protein)
% protein in Vo [1]: 100%

Molecule: Mms6 I117G (from UniProt Q2W8R5 1-133) (natural protein)
% protein in Vo [2]: 94% and 95%

Molecule: Mms6 L132G (from UniProt Q2W8R5 1-133) (natural protein)
% protein in Vo [6]: 29% and 37%

Molecule: Mms6 W79A (from UniProt Q2W8R5 1-133) (natural protein)
% protein in Vo [7]: 79% and 83%

Molecule: Mms6 W79F,W95F (from UniProt Q2W8R5 1-133) (natural protein)
% protein in Vo [9]: 75% and 82%

Molecule: Mms6 W95F (from UniProt Q2W8R5 1-133) (natural protein)
% protein in Vo [11]: 97%

B1: C21Mms6 (synthetic peptide of the C-terminal 21 amino acids of Mms6) (peptide, UniProt Q2W8R5 113-133, looked up)
peptide: KSRDIESAQSDEEVELRDALA
notes: Mms6, Magnetospirillum magneticum AMB-1, C-terminal 21 amino acids; also called synthetic 21 amino acid peptide C-terminal domain; source: synthetic peptide, ordered from GenScript
stoichiometry N [12]: 7.3 C21Mms6 units/multimer
stoichiometry N [13]: 2 C21Mms6 units/multimer
stoichiometry N [14]: 4 C21Mms6 units/multimer
stoichiometry N [15]: 4.1 C21Mms6 units/multimer
stoichiometry N [16]: 2 C21Mms6 units/multimer
stoichiometry N [17]: 1.8 C21Mms6 units/multimer
stoichiometry N [18]: 2.1 C21Mms6 units/multimer
